Like-named read-outs stand apart in the source and are kept apart here.
Conditions: for Duration of Neutropenia in Neutropenic Cycles, Median / Duration of Neutropenia in Neutropenic Cycles, Range / Nadirs in Neutropenic Cycles, Median / Nadirs in Neutropenic Cycles, Range / Duration of Neutropenia in Neutropenic Cycles, Mean / Nadirs in Neutropenic Cycles, Mean / Day of Onset of Neutropenia in Neutropenic Cycles, Median / Day of Onset of Neutropenia in Neutropenic Cycles, Range / Day of Onset of Neutropenia in Neutropenic Cycles, Mean / Nadir (all cycles), Median / Nadir (all cycles), Range / Nadir (all cycles), Mean: taxol 250 mg/m^2/21 days
Excerpt: A total of 47 patients were included in this study. All patients had recurrent advanced stage epithelial ovarian cancer confirmed on histologic review at the Laboratory of Pathology, National Cancer Institute (NCI). Borderline, mixed, and germ cell histologies were excluded.
Pretreatment evaluation consisted of a physical examination, laboratory studies with CA-125, radiographic evaluation by CT scan, baseline electromyogram with nerve conduction velocity studies (EMG/NCV), creatinine clearance, chest radiograph, and EKG. On-study staging was completed within two weeks of starting therapy. Physical examination and laboratory evaluations were repeated with every cycle, except for CBC which was evaluated twice weekly. Patients underwent restaging every two cycles (i.e., every 6 weeks), which included the repetition of any radiographic studies that were abnormal upon entry. EMG/NCV studies were repeated as indicated to determine the presence of any progressive neurologic toxicity.
The G-CSF was supplied to the Division of Cancer Treatment by Amgen, Inc. (Thousand Oaks, Calif.). This G-CSF administration continued until the absolute granulocyte count of the patient was greater than 1500/μl for two consecutive days after the nadir (i.e., the total count for the two days was at least 3000/μl ) or until the total white blood cell count was greater than 30,000/μl. Patients with responding disease or stable disease continued on the study and were reevaluated at two cycle intervals.
Patients manifesting second or third degree heart block had remaining cycles given in the intensive care unit with appropriate interventions. Antiemetics were given as needed.
More specifically, this was undertaken by increasing the dose of G-CSF administered on the next treatment cycle.
The particulars pertaining to the flexible G-CSF dosage regimen are as follows. […] The dose of G-CSF was reduced by 5 μg/kg/day if severe bone pain occurred at these higher G-CSF dosage levels, i.e., at levels greater than or equal to 10 μg/kg/day.

B1: G-CSF: granulocyte colony-stimulating factor, available from Amgen, Inc. (protein, UniProt P09919 31-207, looked up)
Granulocyte …: TPLGPASSLPQSFLLKCLEQVRKIQGDGAALQEKLVSECATYKLCHPEELVLLGHSLGIPWAPLSSCPSQALQLAGCLSQLHSGLFLYQGLLQALEGISPELGPTLDTLQLDVADFATTIWQQMEELGMAPALQPTQGAMPAFASAFQRRAGGVLVASHLQSFLEVSYRVLRHLAQP
Duration of Neutropenia in Neutropenic Cycles, Median (10 μg/kg G-CSF, 49 cycles): 1 days
Duration of Neutropenia in Neutropenic Cycles, Range (10 μg/kg G-CSF, 49 cycles): 1 to 4 days
Nadirs in Neutropenic Cycles, Median (10 μg/kg G-CSF, 49 cycles): 162
Nadirs in Neutropenic Cycles, Range (10 μg/kg G-CSF, 49 cycles): 0-494
Duration of Neutropenia in Neutropenic Cycles, Mean (10 μg/kg G-CSF, 49 cycles, ± 0.7 on wrapped line): 1 days
Nadirs in Neutropenic Cycles, Mean (10 μg/kg G-CSF, 49 cycles, ± 158 on wrapped line): 178
Day of Onset of Neutropenia in Neutropenic Cycles, Median (10 μg/kg G-CSF, 54 cycles): 7 days
Day of Onset of Neutropenia in Neutropenic Cycles, Range (10 μg/kg G-CSF, 54 cycles): 5 to 9 days
Day of Onset of Neutropenia in Neutropenic Cycles, Mean (10 μg/kg G-CSF, 54 cycles, ± 0.8 on wrapped line): 7 days
Nadir (all cycles), Median (10 μg/kg G-CSF, 130 cycles): 865
Nadir (all cycles), Range (10 μg/kg G-CSF, 130 cycles): 0-6232
Nadir (all cycles), Mean (10 μg/kg G-CSF, 130 cycles, ± 1636 on wrapped line): 1341
Day of Onset of Neutropenia in Neutropenic Cycles, Median (20 μg/kg G-CSF, 20 cycles): 7 days
Day of Onset of Neutropenia in Neutropenic Cycles, Range (20 μg/kg G-CSF, 20 cycles): 6 to 11 days
Duration of Neutropenia in Neutropenic Cycles, Median (20 μg/kg G-CSF, 20 cycles): 1 days
Duration of Neutropenia in Neutropenic Cycles, Range (20 μg/kg G-CSF, 20 cycles): 1 to 5 days
Nadirs in Neutropenic Cycles, Median (20 μg/kg G-CSF, 20 cycles): 191
Nadirs in Neutropenic Cycles, Range (20 μg/kg G-CSF, 20 cycles): 0-493
Duration of Neutropenia in Neutropenic Cycles, Mean (20 μg/kg G-CSF, 20 cycles, ± 0.9 on wrapped line): 1 days
Day of Onset of Neutropenia in Neutropenic Cycles, Mean (20 μg/kg G-CSF, 20 cycles, ± 1.1 on wrapped line): 7 days
Nadirs in Neutropenic Cycles, Mean (20 μg/kg G-CSF, 20 cycles, ± 155 on wrapped line): 200
Nadir (all cycles), Median (20 μg/kg G-CSF, 42 cycles): 626
Nadir (all cycles), Range (20 μg/kg G-CSF, 42 cycles): 0-6536
Nadir (all cycles), Mean (20 μg/kg G-CSF, 42 cycles, ± 1430 on wrapped line): 1204
Patients in whom the G-CSF dose is poorly tolerated (in vivo): about 5%
Patients whose G-CSF doses were modified for bone pain (phase II): two
Bone Pain, G-CSF DR (dose reduction) (phase II, 47 patients): 3 (6) No. (%)
